Results reported in patent US20250129178A1 (INNOBATION BIO, published 2025).

B1: 5A9 antibody (antibody, V domains shown)
VH: EVQLEESGPAVIKPSQSLSLTCIVSGFSITSSSYCWHWIRQPPGKGLEWMGRICYEGSIYYSPSIKSRFTISRDTSLNKFFIQLSSVTNEDTAMYYCSRENRLLKDAMDYWGQGTSVTVSS
VL: DIVMTQSPSSLAVSAGEKVTMSCKSSQSLLSSRTRKNYLAWYQQKPGQSPKLLIYWASTRESGVPDRFTGSGSGTDFTLTISSVQAEDLAVYYCKQSYNLRTFGGGTKLEIK
notes: Mouse hybridoma monoclonal antibody, detected with anti-mouse IgG
B2: 9E11 antibody (antibody, V domains shown)
VH: QVQLKESGPGLVKPSQSLSLTCTVTGYSITSDYAWNWIRQFPGNKLEWMGYISYSGSTRYNPSLKSRISITRDTSKNQFFLQLNSVTTEDTATYYCARGAAGFAYWGQGTLVTVSA
VL: DIVMTQSPASQSASLGESVTITCLASQTIGTWLAWYQQKPGKSPQLLIYAATSLADGVPSRFSGSGSGTEFSFKISSLQAEDFVSYYCQQLYSTPWTFGGGTKLEIK
notes: as for B1
B3: 9E8 antibody (antibody, V domains shown)
VH: EVQLQQSGPELVKPGASMKISCKASGYSFTGYTMNWVKQSHGKNLEWIGLINPYNGGTSYNQKFKGKATLTVDKSSSTAYMELLSLTSEDSAVYYCARVGGSSWYFDVWGAGTTVTVSS
VL: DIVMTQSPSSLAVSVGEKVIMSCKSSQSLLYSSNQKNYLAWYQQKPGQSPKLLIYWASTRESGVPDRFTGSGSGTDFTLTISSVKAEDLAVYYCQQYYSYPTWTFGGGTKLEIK
notes: Mouse hybridoma monoclonal antibody, detected with anti-mouse IgG; The printed VH and VL are identical to those of 3A8
B4: 3A8 antibody (antibody, V domains shown)
VH: B3 VH
VL: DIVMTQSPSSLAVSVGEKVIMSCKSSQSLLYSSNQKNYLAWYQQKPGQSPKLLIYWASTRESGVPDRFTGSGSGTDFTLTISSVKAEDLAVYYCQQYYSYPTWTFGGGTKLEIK
notes: Mouse hybridoma monoclonal antibody; Tested as hybridoma culture supernatant in ELISA and at 1 ug in flow cytometry, detected with anti-mouse IgG; The printed VH and VL are identical to those of 9E8
B5: 7C3 antibody (antibody, V domains shown)
VH: EVQLQQSGAELMRPGASVKISCKATGYTFSAYWIEWVKQRPGHGLEWIGEILPGSGSTKYNEKFKGKATFTADTSSNTAYMQLSSLTSEDSAVYYCARGDYYAMDYWGQGTSVTVSS
VL: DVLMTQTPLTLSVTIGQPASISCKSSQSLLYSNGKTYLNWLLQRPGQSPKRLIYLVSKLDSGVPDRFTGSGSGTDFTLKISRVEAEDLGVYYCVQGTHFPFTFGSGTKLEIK
notes: as for B1
B6: 4G11 antibody (antibody, V domains shown)
VH: EVQLQQSGPELVKTGDSVKISCKASGYSFTGYYMHWVKQSHGKSLEWIGYISCYNGATSYSQKFKGKATFTVDTSSSTAYMQFNSLTSEDSAVYYCARWDRDWFAYWGQGTLVTVSA
VL: DIVMTQSHKFMSTSVGDRVSITCKASQDVGIAVAWYQQKPGQSPKLLIYWASTRHTGVPDRFTGSGSGTDFTLTISNVQSEDLADYFCQQYSSYPFTFGSGTKLEIK
notes: as for B1

These binders were tested against T1, mesothelin on NCI-H2052 mesothelioma cells overexpressing mesothelin (UniProt Q13421 296-598) (assay: flow cytometry on NCI-H2052 cells, 1 ug antibody, PE goat anti-mouse IgG secondary).
T1 construct: whole, on cells; NCI-H2052 is a human cell line and the positive control is anti-human mesothelin; also called H2052 cells; cells expressing mesothelin
T1 sequence (Q13421 other isoform, or with tags, fused parts or gaps limits assumed): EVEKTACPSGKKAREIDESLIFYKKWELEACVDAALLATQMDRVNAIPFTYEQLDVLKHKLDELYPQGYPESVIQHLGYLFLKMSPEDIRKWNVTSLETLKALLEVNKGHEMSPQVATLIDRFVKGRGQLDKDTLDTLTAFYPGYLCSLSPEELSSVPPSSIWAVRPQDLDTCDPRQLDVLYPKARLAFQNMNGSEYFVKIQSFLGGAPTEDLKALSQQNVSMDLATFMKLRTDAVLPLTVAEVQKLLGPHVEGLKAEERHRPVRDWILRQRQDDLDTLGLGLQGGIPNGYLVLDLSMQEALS

Mean	Median	Binder
63.2	58.5	B1
81.4	69.1	B2
77.7	56.2	B3
861	704	B4
528	444	B5
1260	1120	B6

The binders below were run against T2, mesothelin protein (Acrobiosystems, cat #MSN-H5223) (UniProt Q13421 296-580) (assay: ELISA, mesothelin peptide coated 100 ng/well, 100 ul hybridoma culture, anti-mIgG-HRP).
T2 construct: The catalogue number is printed only for the immunogen; also called mesothelin peptide; MSLN
T2 sequence (Q13421 other isoform, or with tags, fused parts or gaps limits assumed): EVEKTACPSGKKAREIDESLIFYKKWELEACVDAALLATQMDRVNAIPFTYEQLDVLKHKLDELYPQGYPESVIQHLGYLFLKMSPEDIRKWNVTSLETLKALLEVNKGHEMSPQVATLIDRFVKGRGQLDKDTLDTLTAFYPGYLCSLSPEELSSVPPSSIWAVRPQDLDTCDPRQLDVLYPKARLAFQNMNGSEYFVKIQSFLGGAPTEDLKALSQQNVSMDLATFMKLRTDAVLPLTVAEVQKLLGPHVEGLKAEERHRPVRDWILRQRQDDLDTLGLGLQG
Method: First, in order to encode the mesothelin peptide, mesothelin peptide was dispensed into a 96-well plate at an amount of 100 ng/well and reacted overnight at 4° C. Then, after treatment with 1×PBST containing 3% BSA, it was blocked for 30 minutes at room temperature. […] The secondary antibody (anti-HRP, 1:10,000) was treated and reacted at room temperature for 30 minutes, washed three times with 1×PBST, and then treated with TMB for color development and reacted at room temperature for 5 minutes. Finally, the reaction was terminated by treatment with a stop solution of 1N H₂SO₄, and then the absorbance was measured at 450 nm.

OD 450 measurements [OD 450]	Binder
1.49	B1
1.64	B2
0.758	B3
1.27	B4
1.52	B5
1.35	B6
